From publication PMC7618510

Target: T1, HA-Halo-MRAP2 (human), Q96G30
T1 chain: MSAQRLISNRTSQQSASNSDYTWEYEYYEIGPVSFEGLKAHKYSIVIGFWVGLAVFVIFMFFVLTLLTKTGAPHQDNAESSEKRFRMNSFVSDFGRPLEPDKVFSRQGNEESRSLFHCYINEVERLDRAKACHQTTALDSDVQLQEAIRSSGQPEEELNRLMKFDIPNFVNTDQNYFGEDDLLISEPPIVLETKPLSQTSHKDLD
Assay: single-molecule pull-down (SiMPull) with photobleaching step counting; one colour: HEK293 cells expressing the HA-Halo-tagged protein alone, labelled at the surface with membrane-impermeable CA-Sulfo646, lysed in 0.5% LMNG/0.05% CHS, immobilised by the HA tag on slides with biotinylated HA antibody, single molecules imaged by TIRF
Details: remark: other sources report otherwise

percent of molecules with a single bleaching step: 68% | percent of molecules with three or four bleaching steps: < 5% | percent of molecules with two bleaching steps: 28%
B1: HA-Halo-MRAP2, Q96G30 1-205 (natural protein)
chain: T1 chain
modifications: here or on the partner: CA-Sulfo646 dye on the Halo tag; CA-Sulfo646 dye on the Halo tag
